Data published in US20170073415A1 (NUMAB, published 2017).
Positions count from the first letter of the chain named. Values belong to the molecule of their own block, whether it stands above or below them.

Legend:
[1] = biological target: human CD3ε expressed on the cell surface of T cells (Jurkat clone E6-1; human CD8+ T cells) (human) (UniProt P07766); assay: cell-based or functional assay
[2] = biological target: T1, human CD3ε expressed on the cell surface of T cells (Jurkat clone E6-1; human CD8+ T cells) (human, UniProt P07766 23-207); assay: cell-based or functional assay
[3] = biological target: human CD3ε expressed on the cell surface of T cells (Jurkat clone E6-1; human CD8+ T cells) (human) (UniProt P07766); assay: cell-based or functional assay; remark: listed apart in the source
[4] = biological target: human heterodimeric single-chain CD3εγ extracellular domain (human) (UniProt P07766); assay: SPR, human scCD3εγ ECD immobilised, scDb injected
[5] = biological target: T1, human CD3ε expressed on the cell …; assay: cell-based or functional assay; remark: listed apart in the source

Fold increase in CD69 expression [MFI normalized to neg. ctrl.], 1.25 µg/ml anti-CD3 IgG, Jurkat cells, 24 h [1]: 1.8 fold
Fold increase in CD69 expression [MFI normalized to neg. ctrl.], 5 µg/ml anti-CD3 IgG, Jurkat cells, 24 h [1]: 2.5 fold
Fold increase in CD69 expression [MFI normalized to neg. ctrl.], 20 µg/ml anti-CD3 IgG, Jurkat cells, 24 h [1]: 3.1 fold
Molecule: OKT3 (BioLegend, Cat. No. 317302) (antibody)

Fold increase in CD69 expression [MFI normalized to neg. ctrl.], 1.25 µg/ml anti-CD3 IgG, Jurkat cells, 24 h [1]: 1.6 fold
Fold increase in CD69 expression [MFI normalized to neg. ctrl.], 5 µg/ml anti-CD3 IgG, Jurkat cells, 24 h [1]: 2.2 fold
Fold increase in CD69 expression [MFI normalized to neg. ctrl.], 20 µg/ml anti-CD3 IgG, Jurkat cells, 24 h [1]: 3 fold
Molecule: TR66 (Novus Biologicals, Cat. No. NBP1-97446) (antibody)

Fold increase in CD69 expression [MFI normalized to neg. ctrl.], 1.25 µg/ml anti-CD3 IgG, Jurkat cells, 24 h [2]: 2.7 fold
Fold increase in CD69 expression [MFI normalized to neg. ctrl.], 5 µg/ml anti-CD3 IgG, Jurkat cells, 24 h [2]: 5.1 fold
Fold increase in CD69 expression [MFI normalized to neg. ctrl.], 20 µg/ml anti-CD3 IgG, Jurkat cells, 24 h [2]: 5.3 fold
B1: clone-06 (monoclonal rabbit anti-CD3ε antibody) (antibody, V domains shown)
VH: QSVEESGGRLVTPGTPLTLTCTVSGFPLSSYAMIWVRQAPGKGLEWIGMILRAGNIYYASWVKGRVTISKTSTTVDLKITSPTTEDTATYFCARRHYNREGYPIGIGDLWGPGTLVTVSS
VL: AQVLTQTPSSVSAAVGGTVTISCQSSESVYNNKRLSWFQQKPGQPPKQLIYTASSLASGVPSRFKGSGSGTQFTLTISDLECDDAATYYCQGEFTCSNADCFTFGGGTEVVVKG

Fold increase in CD69 expression [MFI normalized to neg. ctrl.], 1.25 µg/ml anti-CD3 IgG, Jurkat cells, 24 h [2]: 2.6 fold
Fold increase in CD69 expression [MFI normalized to neg. ctrl.], 5 µg/ml anti-CD3 IgG, Jurkat cells, 24 h [2]: 4.6 fold
Fold increase in CD69 expression [MFI normalized to neg. ctrl.], 20 µg/ml anti-CD3 IgG, Jurkat cells, 24 h [2]: 6.6 fold
B2: clone-03 (monoclonal rabbit anti-CD3ε antibody) (antibody, V domains shown)
VH: QSLEESGGRLVTPGTPLTLTCTVSGFPLNRYAMLWVRQAPGKGLEWIGLITRADKKYYASWAKGRFTISKTSTTVDLEITGPTTEDTATYFCARRHYNTDGYPIAIGDLWGPGTLVTVSS
VL: B1 VL with S26N, S28N, V29I, N31S, K33N, K47N, T52S, T95N, S97N, N98S

Fold increase in CD69 expression [MFI normalized to neg. ctrl.], 1.25 µg/ml anti-CD3 IgG, Jurkat cells, 24 h [2]: 2.6 fold
Fold increase in CD69 expression [MFI normalized to neg. ctrl.], 5 µg/ml anti-CD3 IgG, Jurkat cells, 24 h [2]: 3.5 fold
Fold increase in CD69 expression [MFI normalized to neg. ctrl.], 20 µg/ml anti-CD3 IgG, Jurkat cells, 24 h [2]: 7.8 fold
B3: clone-04 (monoclonal rabbit anti-CD3ε antibody) (antibody, V domains shown)
VH: QSLEESGGRLVKPDETLTLTCTVSGFPLSSYAMGWFRQAPGKGLEWIGMILRSDNTYYASWAKGRFTISKTSTTVDLKITSPTTEDTATYFCARRHYNASGNPIAIGDLWGPGTLVTVSS
VL: B1 VL with S22N, E27Q, K33N, Q48L, A53T, Q72E, D83A, T95S, N98R, T103N

Potency to lyse target cells [EC50] (CHO-IL5R cells, CD8+ T cells, 88 h) [3]: 100 pM
Potency to stimulate IL-2 secretion by T cells [EC50] [3]: 960 pM
Kd [4]: 11500 pM
B4: Construct 1, bispecific anti-CD3×IL5R single-chain diabody comprising the humanized variable domain of clone-06 (bispecific antibody, part only; not given: anti-IL5R domains and linkers, part only)
chain, part: DIQMTQSPSSLSASVGDRVTITCQSSESVYNNKRLSWYQQKPGKAPKLLIYTASSLASGVPSRFSGSGSGTDFTLTISSLQPEDFATYYCQGEFTCSNADCFTFGQGTKLTVLGEVQLVESGGGLVQPGGSLRLSCAASGFPLSSYAMIWVRQAPGKGLEWIGMILRAGNIYYASWVKGRFTISRDNSKNTVYLQMNSLRAEDTAVYYCARRHYNREGYPIGIGDLWGQGTLVTVSS

EC50 of specific lysis of CHO-IL5R target cells by CD8+ T cells at 64 hours [5]: 310 pM
B5: bispecific anti-IL5R×CD3ε single-chain diabody containing Numab's humanized clone 6 anti-CD3 variable domain (Example 9) (bispecific antibody)
chain: DIQMTQSPSSLSASVGDRVTITCQASQNIYSNLAWYQQKPGKAPKLLIYRASTLASGVPSRFSGSGSGTDFTLTISSLQPEDFATYYCQSNYGINYYGAAFGQGTKLTVLGGGGGSEVQLVESGGGLVQPGGSLRLSCAASGFPLSSYAMIWVRQAPGKGLEWIGMILRAGNIYYASWVKGRFTISRDNSKNTVYLQMNSLRAEDTAVYYCARRHYNREGYPIGIGDLWGQGTLVTVSSGGGGSGGGGSGGGGSGGGGSDIQMTQSPSSLSASVGDRVTITCQSSESVYNNKRLSWYQQKPGKAPKLLIYTASSLASGVPSRFSGSGSGTDFTLTISSLQPEDFATYYCQGEFTCSNADCFTFGQGTKLTVLGGGGGSEVQLVESGGGLVQPGGSLRLSCAASGFSLSSYDMTWVRQAPGKGLEWIGIIYVSGSAYYASWAKGRFTISRDNSKNTVYLQMNSLRAEDTAVYYCARINYGLDLWGQGTLVTVSS

Fold increase in CD69 expression [MFI normalized to neg. ctrl.], 1.25 µg/ml anti-CD3 IgG, Jurkat cells, 24 h [2]: 3.3 fold
Fold increase in CD69 expression [MFI normalized to neg. ctrl.], 5 µg/ml anti-CD3 IgG, Jurkat cells, 24 h [2]: 4.6 fold
Fold increase in CD69 expression [MFI normalized to neg. ctrl.], 20 µg/ml anti-CD3 IgG, Jurkat cells, 24 h [2]: 7.4 fold
B6: clone-02 (monoclonal rabbit anti-CD3ε antibody) (antibody, V domains shown)
VH: QSLEESGGRLVTPGTPLTLTCTVSGFPLSAYAMIWVRQAPGKGLEWIGMIIRSGTVYYANWAKGRFTISKTSTTVDLKITSPTTEDTATYFCARRHYNADGYPIGIGDLWGPGTLVTVSS
VL: AQVLTQTPSSVSAVVGGTVTISCQSSESVYSNNRLSWFQQKPGQPPKLLIYSASTLASGVPSRFKGSGSGTQFTLTITDLECDDAATYFCQGEFSCSSVDCFSFGGGTEVVVKG

Fold increase in CD69 expression [MFI normalized to neg. ctrl.], 1.25 µg/ml anti-CD3 IgG, Jurkat cells, 24 h [2]: 2.6 fold
Fold increase in CD69 expression [MFI normalized to neg. ctrl.], 5 µg/ml anti-CD3 IgG, Jurkat cells, 24 h [2]: 4.2 fold
Fold increase in CD69 expression [MFI normalized to neg. ctrl.], 20 µg/ml anti-CD3 IgG, Jurkat cells, 24 h [2]: 6.2 fold
B7: clone-10 (monoclonal rabbit anti-CD3ε antibody) (antibody, V domains shown)
VH: B2 VH with N29S, R30S, Y31F, L49M, T51M, D54H, K55N, K56M, G81S, D100Y
VL: AQVLTQTPSSVSAAVGGTATISCQSNENIYSNNRLSWFQQKAGQPPNQLIYSASSLASGVPSRFKGSGSGTQFTLTISDLECDDAATYYCQGEFSCSSADCFTFGGGTEVVVKG
